Results on two molecules are retold here after paper PMC4156911.

The target of data set [1] is T1, E. coli core RNA polymerase (wild-type) (Escherichia coli, UniProt P0A7Z4;P0A8V2;P0A8T7;P0A800 1-329;1-1342;1-1407;1-91). Nature of the data set: EMSA.
Data set [2] addresses T1, E. coli core RNA polymerase (wild-type). Kind of data set: EMSA. This is another data set of the same source. (In EMSA bound probe runs differently from free probe, usually more slowly.)

Where two headings read alike, the source gives them in different places.

T1 sequence (P0A7Z4 whole entry, chain 1 of 3): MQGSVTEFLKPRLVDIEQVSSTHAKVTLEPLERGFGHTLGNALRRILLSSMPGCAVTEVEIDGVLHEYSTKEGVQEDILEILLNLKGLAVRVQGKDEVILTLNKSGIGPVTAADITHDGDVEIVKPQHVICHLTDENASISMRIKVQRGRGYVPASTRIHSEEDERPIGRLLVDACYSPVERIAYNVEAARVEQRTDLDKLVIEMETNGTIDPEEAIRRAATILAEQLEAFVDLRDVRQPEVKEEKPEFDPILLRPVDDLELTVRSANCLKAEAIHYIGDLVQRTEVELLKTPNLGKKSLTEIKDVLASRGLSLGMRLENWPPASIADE
T1 sequence (P0A8V2 whole entry, chain 2 of 3): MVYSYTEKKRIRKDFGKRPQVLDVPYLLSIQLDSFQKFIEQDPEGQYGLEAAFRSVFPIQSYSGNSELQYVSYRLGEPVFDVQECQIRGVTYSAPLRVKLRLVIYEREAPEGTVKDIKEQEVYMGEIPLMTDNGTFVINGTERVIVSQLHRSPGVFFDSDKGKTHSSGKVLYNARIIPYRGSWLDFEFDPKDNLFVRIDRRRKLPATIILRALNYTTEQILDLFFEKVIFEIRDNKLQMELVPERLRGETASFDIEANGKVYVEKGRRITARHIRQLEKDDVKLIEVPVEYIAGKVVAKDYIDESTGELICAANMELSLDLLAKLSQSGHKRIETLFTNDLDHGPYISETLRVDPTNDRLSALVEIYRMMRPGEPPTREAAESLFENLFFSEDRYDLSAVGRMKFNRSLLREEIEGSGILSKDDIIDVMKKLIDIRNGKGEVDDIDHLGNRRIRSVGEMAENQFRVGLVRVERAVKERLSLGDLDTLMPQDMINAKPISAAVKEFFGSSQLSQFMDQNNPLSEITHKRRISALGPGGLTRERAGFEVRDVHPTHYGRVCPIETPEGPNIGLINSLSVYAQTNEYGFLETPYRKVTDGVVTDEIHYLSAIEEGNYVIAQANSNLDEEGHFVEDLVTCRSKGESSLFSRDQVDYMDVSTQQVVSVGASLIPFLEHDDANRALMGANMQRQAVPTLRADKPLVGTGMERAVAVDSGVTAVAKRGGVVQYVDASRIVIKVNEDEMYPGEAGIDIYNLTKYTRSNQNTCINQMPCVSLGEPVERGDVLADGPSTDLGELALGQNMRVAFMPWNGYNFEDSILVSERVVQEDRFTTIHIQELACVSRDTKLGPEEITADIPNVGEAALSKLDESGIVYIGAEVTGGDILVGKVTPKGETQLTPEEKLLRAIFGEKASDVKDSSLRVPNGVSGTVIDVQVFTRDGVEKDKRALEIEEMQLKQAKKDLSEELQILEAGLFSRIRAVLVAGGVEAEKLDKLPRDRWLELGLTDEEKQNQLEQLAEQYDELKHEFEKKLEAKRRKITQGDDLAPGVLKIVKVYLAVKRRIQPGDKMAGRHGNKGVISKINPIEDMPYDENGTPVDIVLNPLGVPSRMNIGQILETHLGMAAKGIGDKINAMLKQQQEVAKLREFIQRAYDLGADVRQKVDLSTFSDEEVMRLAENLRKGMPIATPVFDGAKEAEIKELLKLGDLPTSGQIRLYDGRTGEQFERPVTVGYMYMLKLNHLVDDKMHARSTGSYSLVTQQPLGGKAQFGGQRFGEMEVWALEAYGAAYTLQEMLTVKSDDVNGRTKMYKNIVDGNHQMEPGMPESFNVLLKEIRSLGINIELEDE
T1 sequence (P0A800 whole entry, chain 4 of 3): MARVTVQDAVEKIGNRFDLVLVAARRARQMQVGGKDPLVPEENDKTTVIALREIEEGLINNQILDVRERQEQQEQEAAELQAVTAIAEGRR

B1: his pause ePEC scaffold (RNA-7604, tDNA 5420, ntDNA 5069) (mixed)
RNA: UCAUCCGGCGAUGUGUGCU
DNA 1: CTCTGAATCTCTTCCAGCACACATCAGGACGTACTGACC
DNA 2: GGTCAGTACGTCCATTCGATCTTCGGAAGAGATTCAGAG
modifications: pyrrolo-cytosine at RNA nt 5 (Z in the printed sequence)
In the case of B1, the binding result in data set [1] is “binds”.

B2: his pause ePEC scaffold + 8mer asRNA (RNA-6598) (mixed)
RNA 1: UCAUCCGGCGAUGUGUGCU
DNA 1: CTCTGAATCTCTTCCAGCACACATCAGGACGTACTGACC
DNA 2: GGTCAGTACGTCCATTCGATCTTCGGAAGAGATTCAGAG
RNA 2: CCGGAUGA
modifications: pyrrolo-cytosine at RNA nt 5 (Z in the printed sequence)
Take B2: in data set [2], the binding result is recorded as “binds”.
